Experimental data published in US20230218738A1 (Pfizer, published 2023).
Where a chain is given by its changes, count along the chain named.

What was measured:
Assay in all cases: BLI (Octet), F on anti-HIS tip, 20 nM mAb
[1] = target: RSV F protein mutant pXCS782 (RSV A2, UniProt P03420 26-109)
[2] = target: RSV F protein mutant pXCS883 (RSV A2, UniProt P03420 26-109)
[3] = target: RSV F protein mutant pXCS805 (RSV A2, UniProt P03420 26-109)
[4] = target: T1, RSV F protein mutant pXCS882 (RSV A2, UniProt P03420 26-109)
T1 chain 1: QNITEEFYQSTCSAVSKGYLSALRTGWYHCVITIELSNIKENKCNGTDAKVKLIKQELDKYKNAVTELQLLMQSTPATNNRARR
T1 chain 2: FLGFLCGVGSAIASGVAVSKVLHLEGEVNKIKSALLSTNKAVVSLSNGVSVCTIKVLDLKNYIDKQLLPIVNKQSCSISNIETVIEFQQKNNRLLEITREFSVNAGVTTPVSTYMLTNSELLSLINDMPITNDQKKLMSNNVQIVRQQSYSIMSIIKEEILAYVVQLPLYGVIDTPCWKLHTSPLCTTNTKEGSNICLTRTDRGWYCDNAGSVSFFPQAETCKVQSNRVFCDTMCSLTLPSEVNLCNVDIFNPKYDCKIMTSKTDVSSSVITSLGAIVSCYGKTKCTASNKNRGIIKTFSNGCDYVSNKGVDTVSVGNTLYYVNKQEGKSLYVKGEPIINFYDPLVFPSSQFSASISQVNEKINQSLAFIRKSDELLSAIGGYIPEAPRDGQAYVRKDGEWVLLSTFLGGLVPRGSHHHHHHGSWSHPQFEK

[5] = target: RSV F protein mutant pXCS809 (RSV A2, UniProt P03420 26-109)
[6] = target: RSV F protein mutant pXCS758 (RSV A2, UniProt P03420 26-109)
[7] = target: RSV F protein mutant pXCS839 (RSV A2, UniProt P03420 26-109)
[8] = target: T2, RSV F protein mutant pXCS892 (RSV A2, UniProt P03420 26-109)
T2 chain 1: T1 chain 1
T2 chain 2: T1 chain 2 with C6L, C235N, S350D, Q351E, S353D

[9] = target: DS-Cav1 (UniProt P03420 26-513)
[10] = target: T3, RSV F protein mutant pXCS849 (RSV A2, UniProt P03420 26-109)
T3 chain 1: T1 chain 1 with C30S, T78C
T3 chain 2: T1 chain 2 with C6L, I12C, C52L, I54S, C235N, Q351E, S353D

[11] = target: T4, RSV F protein mutant pXCS890 (RSV A2, UniProt P03420 26-109)
T4 chain 1: T1 chain 1 with C30S, T78C
T4 chain 2: T1 chain 2 with C6L, I12C, C52L, C235N, S350D, Q351E, S353D

[12] = target: RSV F protein mutant pXCS740 (RSV A2, UniProt P03420 26-109)

B1: AM22 (antibody, V domains shown)
VH: QVQLVQSGAEVKKPGATVKVSCKISGHTLIKLSIHWVRQAPGKGLEWMGGYEGEVDEIFYAQKFQHRLTVIADTATDTVYMELGRLTSDDTAVYFCGTLGVTVTEAGLGIDDYWGQGTLVTVSS
VL: EIVLTQSPGTLSLSPGERATLSCRASQIVSRNHLAWYQQKPGQAPRLLIFGASSRATGIPVRFSGSGSGTDFTLTINGLAPEDFAVYYCLSSDSSIFTFGPGTKVDFK
[1]
  Response (nm shift): 0.222 nm
[2]
  Response (nm shift): 0.233 nm
[3]
  Response (nm shift): 0.173 nm
[4]
  Response (nm shift): 0.219 nm
[5]
  Response (nm shift): 0.185 nm
[6]
  Response (nm shift): 0.273 nm
[7]
  Response (nm shift): 0.39 nm
[8]
  Response (nm shift): 0.542 nm
[9]
  Response (nm shift): 0.469 nm
[10]
  Response (nm shift): 0.43 nm
[11]
  Response (nm shift): 0.538 nm
[12]
  Response (nm shift): 0.172 nm

B2: MPE8 (antibody, V domains shown)
VH: EVQLVESGGGLVKPGGSLRLSCAASGFTFSSYSMNWVRQAPGKGLEWVSSISASSSYSDYADSAKGRFTISRDNAKTSLFLQMNSLRAEDTAIYFCARARATGYSSITPYFDIWGQGTLVTVSS
VL: QSVVTQTPSVSGAPGQRVTISCTGSSSNIGAGYDVHWYQQLPGTAPKLLIYDNNNRPSGVPDRFSASKSGTSASLAITGLQAEDEADYYCQSYDRNLSGVFGTGTKVTVL
notes: also called MPEG
[1]
  Response (nm shift): 0.513 nm
[2]
  Response (nm shift): 0.704 nm
[4]
  Response (nm shift): 0.691 nm
[6]
  Response (nm shift): 0.816 nm
[8]
  Response (nm shift): 1.03 nm
[10]
  Response (nm shift): 0.908 nm
[11]
  Response (nm shift): 0.999 nm
[12]
  Response (nm shift): 0.546 nm
